Data on 6 molecules can be found in US20180251562A1 (XOMA US, published 2018).

Numbering of substitutions follows the chain as printed. Read-outs that look alike come from different tables or passages of the source.

The target of test [1] is T1, human insulin receptor (INSR) on CHOK1 cells (human, UniProt P06213 28-1382).
T1 construct: whole, on cells; CHOK1 cells over-expressing human INSR; also called human INSR; hINSR
Description: binding to CHO cells expressing human INSR; 2nd column headed CHO Human INSR; quantity and unit not printed [cont'd].

Test [2] has as its target T2, rat insulin receptor (INSR) on CHOK1 cells (rat, UniProt P15127 27-1383).
T2 construct: whole, on cells; CHOK1 cells over-expressing rat INSR; also called rat INSR ortholog
Description: binding to CHO cells expressing rat INSR; 1st column headed CHO Rat INSR; quantity and unit not printed [cont'd].

Test [3] addresses T3, cynomolgus insulin receptor (INSR) on CHOK1 cells (cyno, UniProt A0A7N9D6H3 48-1390).
T3 construct: whole, on cells; CHOK1 cells over-expressing cyno INSR; also called cynomologous INSR ortholog; monkey INSR
Put plainly: binding to CHO cells expressing cyno INSR; 2nd column headed CHO Cyno INSR (same numbers as the 1st); quantity and unit not printed [cont'd].

Test [4] has as its target T1, human insulin receptor (INSR) on CHOK1 …. Description: binding to CHO cells expressing human INSR; 1st column headed CHO Human INSR; quantity and unit not printed [cont'd].
The target of test [5] is T2, rat insulin receptor (INSR) on CHOK1 …. Description: binding to CHO cells expressing rat INSR; 2nd column headed CHO Rat INSR (the 1st column's numbers with more digits); quantity and unit not printed [cont'd].
Test [6] concerns the target T4, Recombinant human insulin receptor (B form) ECD (R&D Systems) (human, UniProt P06213 28-956, limits assumed).
T4 construct: extracellular domain; also called INSR-ECD; h-INSR
Description: SPR (Biacore 2000), INSR-ECD immobilised, purified Fab injected, 1:1 fit.

Test [7] addresses T1, human insulin receptor (INSR) on CHOK1 …. Description: flow cytometry on CHO cells expressing human INSR.
Test [8] addresses T2, rat insulin receptor (INSR) on CHOK1 …. Description: cell-based or functional assay.
Test [9] deals with T3, cynomolgus insulin receptor (INSR) on …. Description: cell-based or functional assay.
Test [10] deals with T5, minipig insulin receptor (INSR) on CHOK1 cells (minipig, UniProt F1SCL0 28-758; F1SCL0 763-1382). Description: cell-based or functional assay.
In test [11] the target is T1, human insulin receptor (INSR) on CHOK1 …. Description: cell-based or functional assay.
Test [12] addresses T2, rat insulin receptor (INSR) on CHOK1 …. Description: flow cytometry on CHOK1 cells expressing the INSR ortholog; Fab, anti-human kappa FITC detection. For orientation: In flow cytometry, cells or beads pass a laser one at a time.
The target in test [13] is T3, cynomolgus insulin receptor (INSR) on …. Described as above.
For test [14], the target named is T5, minipig insulin receptor (INSR) on …. Described as above.
In test [15] the target is T1, human insulin receptor (INSR) on CHOK1 …. The description is as above.
Test [16] concerns the target T3, cynomolgus insulin receptor (INSR) on …. Description: binding to CHO cells expressing cyno INSR; 1st column headed CHO Cyno INSR; quantity and unit not printed [cont'd].
Test [17] deals with T1, human insulin receptor (INSR) on CHOK1 …. Description: cell-based or functional assay. The source holds these as a separate data set.
Test [18] shares this target. Description: cell-based or functional assay. This is another data set of the same source.
In test [19] the target is T6, solubilized human INSR (B isoform) from CHO-hINSR-B cells, without insulin (human, UniProt P06213 28-1382).
T6 construct: mature; Detergent-solubilized full-length receptor in cell lysate, captured on the SPR chip by its carboxy-terminal part; also called solubilized INSR
Description: SPR (ProteOn XPR36), solubilized INSR-B captured by CT-3 mAb, Fab injected, -insulin.

The target of test [20] is T1, human insulin receptor (INSR) on CHOK1 …. Put plainly: flow cytometry on CHO cells expressing human INSR. The source holds these as a separate data set.
Test [21] has as its target T2, rat insulin receptor (INSR) on CHOK1 …. Description: flow cytometry on CHOK1 cells expressing the INSR ortholog; IgG, anti-human IgG APC detection.
The target in test [22] is T3, cynomolgus insulin receptor (INSR) on …. Described as above.
Test [23] deals with T5, minipig insulin receptor (INSR) on …. The test is described as above.
Test [24] concerns the target T1, human insulin receptor (INSR) on CHOK1 …. The test is described as above.
In test [25] the target is T6, solubilized human INSR (B isoform) from …. Put plainly: SPR (ProteOn XPR36), solubilized INSR captured by CT-3 mAb, antibody injected, no insulin.
The target in test [26] is T4, Recombinant human insulin receptor (B …). Put plainly: SPR (Biacore 2000), INSR-ECD immobilised, purified Fab injected, 1:1 fit [cont'd]. In general terms: Surface plasmon resonance follows binding to a sensor surface in real time, without labels.
For test [27] the target is unchanged. Description: SPR (Biacore 2000), INSR-ECD immobilised; relative to 247.2.018 Fab.

B1: XPA.15.247.2.018 Fab (Fab, V domains shown)
VH: EVQLVETGGGVVQPGRSLRLSCAASGFTFSSYAMHWVRQAPGKGLEWVAVISYSGSNKYYADSVKGRFTISRDNSKNTLYLQMNSLRAEDTAVYYCARHEWGFGFDYWGQGTTVTVSS
VL: DVVMTQSPLSLPVTLGQPASISCRSSQSLVYGDGNTYLNWFQQRPGQSPRRLIYKVSNRDSGVPDRFSGSGSGTEFTLKISRVEAEDVGVYFCMQGTYWPGTFGGGTKLEIKR
notes: Monomeric Fab; also called XPA.247.2.018
For the molecule B1, the figures for the “CHO Human INSR” value in test [1] and in test [4] were 1.63 and 2.2, respectively. Moreover, the “CHO Rat INSR” value in test [2] and in test [5] was 1.28 each time. Moreover, the “CHO Cyno INSR” value in test [3] and in test [16] was 2.62 throughout. The figures for the Kd in test [6] and in [19] were 9.7 nM and 6.9 nM, respectively. The EC50 (read off the curve) – broadly, the concentration that produces a half-maximal response – in [7] was approximately 0.2 µg/mL. Moreover, the “EC50 (nM), pAKT signaling assay” value in test [8] worked out at 4.2 nM; in test [9] it was 2.8 nM; in [10], 2.5 nM; in [11], 3.3 nM. Moreover, the EC50 (as a rule, the concentration needed to bring the measured effect to its halfway point) in [12] was 1.9 nM; in test [13], 21.9 nM; in test [14] it was 2 nM; in [15] it was 1.6 nM. Also, in test [17], the “EC50, pAKT assay at the EC80 concentration of insulin” value is 7.7 nM. Besides, in test [18], the “Potency EC50 value [nM] [cont'd]” value came out at 1.31 nM.

B2: XPA.15.247.2.018 IgG (antibody, V domains shown)
VH: B1 VH
VL: B1 VL
notes: Tested as IgG; also called XPA.15.247.2.018 antibody
B2: in [20], the “EC50 (read off the curve)” value is approximately 0.8 µg/mL. The EC50 was found to be 0.4 nM in test [21], 1.4 nM in [22], 0.5 nM in [23] and 0.3 nM in [24]. In addition, the “EC50 (nM), pAKT signaling assay” value in test [8] worked out at 0.4 nM; in [9], 0.2 nM; in test [10], 0.3 nM; in [11] it was 0.3 nM. The Kd (usually a measure of binding affinity in units of concentration) in [25] was 6.6 nM.

B3: XPA.15.247 parent antibody (IgG) (antibody, V domains shown)
VH: B1 VH with S54D, F105M, Y107V
VL: DVVMTQSPLSLSVTLGQPASISCRSSLSLVYGDENTYLNWFQQRPGQSPRRLLYKVSDRDSGVPDRFSGSGSGTDFTLKISRVEADDVGVYYCMQGTHWPYTFGQGTKLEIKR
notes: Tested as IgG; also called XPA.15.247 antibody
In the case of B3, the EC50 is 9.7 nM in test [21], 13.6 nM in [22], 12 nM in [23] and 8.8 nM in [24]. Moreover, the “EC50 (nM), pAKT signaling assay” value was 46.2 nM in test [8], 30.7 nM in test [9], 20.7 nM in [10] and 34.5 nM in test [11]. In [17], the “EC50, pAKT assay at the EC80 concentration of insulin” value was found to be 34.7 nM. Moreover, in test [25], the Kd was 10 nM. Moreover, the dissociation rate constant (koff) (in general, a measure of how fast the partners let go of each other) in [25] amounted to 0.000471 s⁻¹. Also, the on-rate constant (kon) (in general, a measure of how fast the partners come together) in [25] was 38500 M⁻¹ s⁻¹.

B4: XPA.15.247.2.011 IgG (antibody, V domains shown)
VH: B1 VH
VL: B3 VL with S12P, L27H, E34G, Q42H, L53I, D58N, S68A, V88F, Y91F
notes: Tested as IgG; also called XPA.15.247.011
For B4, the EC50 in test [21] was 1.3 nM; in test [22], 3.3 nM; in test [23] it was 1.5 nM; in test [24], 1 nM. Also, the “EC50 (nM), pAKT signaling assay” value in test [8] was 3.1 nM; in test [9], 1.3 nM; in test [10], 1.7 nM; in test [11] it was 1.5 nM.

B5: XPA.15.247.2.014 IgG (antibody, V domains shown)
VH: B1 VH
VL: B1 VL with N58K, E75D, F92Y, G101M
notes: Tested as IgG; also called XPA.15.247.014
On to B5, for which the EC50 in test [21] came to 0.7 nM; in test [22] it was 1.1 nM; in test [23] it was 0.9 nM; in [24], 0.7 nM. The “EC50 (nM), pAKT signaling assay” value in [8] turned out to be 4.2 nM; in test [9], 1.7 nM; in test [10], 2.3 nM; in test [11], 2.1 nM.

B6: RHF.15.05896.075 (Fab, V domains shown)
VH: B1 VH with T28K, F105Y
VL: B1 VL
notes: Untagged Fab
In the case of B6, the “CHO Human INSR” value in test [1] came to 0.791; in test [4] it was 1.06. The “CHO Rat INSR” value in test [2] and in [5] was 0.621 in each case. Besides, the “CHO Cyno INSR” value in test [3] and in [16] was 0.728 in each case. For the same molecule, the Kd in test [6] was found to be 1.4 nM. In [18], the “Potency EC50 value [nM] [cont'd]” value worked out at 1.16 nM. Besides, in test [26], the koff is 0.00045 s⁻¹. The kon in test [26] was 320000 M⁻¹ s⁻¹. For the same molecule, the “Fold KD Improvement” value in test [27] amounted to 7 fold.
